Columns and labels:
ovEts-2-GST fusion [1] = target: T1, ovEts-2-GST fusion (Ovis aries, UniProt A0ACI6RFA5 364-444); experiment: EMSA; anti-Ets-2 supershift; EMSA: 35 fmol probe, 2 ug Ets-2-GST or 10 ug JEG-3 extract, buffer per cited ref 23; pull-down: extract in 25 mM Tris-HCl pH 7.5, 150 mM NaCl, 0.5% Triton X-100, 0.5 mM DTT, 4 C overnight; conditions: protein: recombinant; tags: GST; label: 32P; blunt; only sense strand given
ovEts-2-GST fusion [2] = target: T1, ovEts-2-GST fusion; experiment: competition EMSA; 250-fold excess vs N1; EMSA: 35 fmol probe, 2 ug Ets-2-GST or 10 ug JEG-3 extract, buffer per cited ref 23; pull-down: extract in 25 mM Tris-HCl pH 7.5, 150 mM NaCl, 0.5% Triton X-100, 0.5 mM DTT, 4 C overnight; conditions: protein: recombinant; tags: GST; blunt; only sense strand given

T1 sequence (A0ACI6RFA5 entry or part of it): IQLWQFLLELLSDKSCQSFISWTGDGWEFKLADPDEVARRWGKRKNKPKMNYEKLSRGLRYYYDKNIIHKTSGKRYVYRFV

Row | Binder | binding result (ovEts-2-GST fusion [1]) | binding result (ovEts-2-GST fusion [2])
1 | Ets-2 consensus (dsDNA) DNA 1: CTAGGACCGGAAGTGGGAGT DNA 2: ACTCCCACTTCCGGTCCTAG | binds | –
2 | TKDP-1/1 (dsDNA) DNA 1: ACAGATGCAGGAGGCATGGG DNA 2: CCCATGCCTCCTGCATCTGT | – | no binding
3 | TKDP-1/2 (dsDNA) DNA 1: CATGGGTAGGTAGGGAGGTTATGCAATAAACAGGACTGACTCAACTCCTCC DNA 2: GGAGGAGTTGAGTCAGTCCTGTTTATTGCATAACCTCCCTACCTACCCATG | – | no binding
4 | TKDP-1/3 (dsDNA) DNA 1: TCCTCCCCTTGCCCACTCCCCTCCTTATCACCTGATCTCACGACTCA DNA 2: TGAGTCGTGAGATCAGGTGATAAGGAGGGGAGTGGGCAAGGGGAGGA | – | no binding
5 | TKDP-1/4 (dsDNA) DNA 1: CTGATCTCACGACTCAGCCAGAATATTAAAAGCTC DNA 2: GAGCTTTTAATATTCTGGCTGAGTCGTGAGATCAG | – | no binding
6 | TKDP-1/5 (dsDNA) DNA 1: CAGTGTGTCCATCCTCAGCATCCTCAGGAGCCCTC DNA 2: GAGGGCTCCTGAGGATGCTGAGGATGGACACACTG | – | no binding
7 | TKDP-1/6 (dsDNA) DNA 1: AGGAGCCCTCCTGCAAGGCC DNA 2: GGCCTTGCAGGAGGGCTCCT | – | no binding
